Test results as given in patent US20050176123A1, “Protease inhibitor” (Morinaga Milk Industry Co., Ltd., priority 2002, published 2005).

What was measured:
Experiment in all cases: cysteine protease inhibitory activity (Z-Phe-Arg-MCA fluorescence, method of Barrett et al.)
Assay type in all cases: biochemical
cathepsin B = target: T1, cathepsin B (Homo sapiens, UniProt P07858)
T1 construct: purchased Wako Pure Chemical Industries, Ltd
Procedure: (§1) Inhibitory activities against cysteine proteases including papain, cathepsin B, cathepsin L and cathepsin S (these proteases are available from Wako Pure Chemical Industries, Ltd.) were determined using commercially available bovine lactoferrin (manufactured by Morinaga Milk Industry Co., Ltd.) as a test sample. The inhibitory activity was measured with reference to the method by Barrett et al. (“Methods in Enzymology,” Vol. 80, p 535-561, 1981) as described below. Namely, Z-Phe-Arg-MCA (final concentration of […]: manufactured by Peptide Institute, Inc.) was added as a substrate to 0.1 M acetic acid buffer solution (pH 5.5) in which sample was dissolved at each concentration. Then, cysteine protease (a protease selected from papain, cathepsin B, cathepsin L and cathepsin S in the present test: manufactured by Wako Pure Chemical Industries, Ltd.) solution (final concentration: 15 units/ml) was added, the whole solution was mixed and the reaction was carried out at 37° C. for 10 minutes. Subsequently, fluorescence intensity (excitation wavelength: 370 nm, emission wavelength: 460 nm) of AMC (7-Amino-4-Methyl-Coumarin) released from the digested substrate was measured with a fluorescence spectrometer (manufactured by Hitachi, Ltd.).

cathepsin L = target: T2, cathepsin L (Homo sapiens, UniProt P07711)
T2 construct: purchased Wako Pure Chemical Industries, Ltd
Procedure: as §1

papain = target: T3, papain (Carica papaya, UniProt P00784); conditions: pH 5.5, 37° C., 10 minutes
T3 construct: purchased Wako Pure Chemical Industries, Ltd
T3 sequence (P00784 134-345): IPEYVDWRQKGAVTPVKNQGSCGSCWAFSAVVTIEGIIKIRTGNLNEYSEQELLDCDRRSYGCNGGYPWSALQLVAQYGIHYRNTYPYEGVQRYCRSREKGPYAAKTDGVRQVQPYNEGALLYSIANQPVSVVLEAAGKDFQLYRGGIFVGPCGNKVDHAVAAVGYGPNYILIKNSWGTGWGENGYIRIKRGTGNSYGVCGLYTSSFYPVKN
Procedure: as §1

[1] = inhibitor 10^−3 M, pH 5.5, 37° C., 10 minutes

T2 sequence (P07711 114-333, species assumed): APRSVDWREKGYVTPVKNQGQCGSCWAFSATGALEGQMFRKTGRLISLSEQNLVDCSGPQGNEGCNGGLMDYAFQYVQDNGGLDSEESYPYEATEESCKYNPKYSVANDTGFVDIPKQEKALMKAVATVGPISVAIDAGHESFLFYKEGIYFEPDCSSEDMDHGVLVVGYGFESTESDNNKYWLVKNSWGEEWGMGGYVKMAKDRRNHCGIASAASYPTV

Substance | cysteine protease-inhibitory activity compared with human lactoferrin peptide Y679-K695 (cathepsin B; similar test to Test Example 5) | cysteine protease-inhibitory activity compared with human lactoferrin peptide Y679-K695 (cathepsin L; similar test to Test Example 5) | inhibition of cysteine protease activity (cathepsin B; [1]) [%] | inhibition of cysteine protease activity (papain; inhibitor 10^−3 M) | inhibition rate at each concentration (%) (papain; inhibitor 10^−4M) | inhibition of cysteine protease activity (cathepsin L; [1]) | inhibition rate at each concentration (%) (cathepsin L; inhibitor 10^−4M, pH 5.5, 37° C., 10 minutes)
bovine lactoferrin peptide Y676-K692: peptide having amino acid numbers 676-692 of SEQ ID No. 2 (bovine lactoferrin), chemically synthesized (YEEYLGTEYVTAIANLK; sig_peptide (1)...(19) Lactoferrin; listed as Bos taurus) | almost equal to the human lactoferrin peptide Y679-K695 | almost equal to the human lactoferrin peptide Y679-K695 |  |  |  |  | 
human lactoferrin peptide Y679-K695: peptide having amino acid numbers 679-695 of SEQ ID No. 1 (human lactoferrin), chemically synthesized (YEKYLGPQYVAGITNLK; sig_peptide (1)...(19) Lactoferrin; listed as Homo Sapiens) |  |  | ~60 | almost completely inhibited | more than 50% | almost completely inhibited | more than 50%
